This note sets out measurements from PMC6008203.

This experiment deals with PtmA2 (as used for analytical size-exclusion chromatography) (Streptomyces platensis CB00739). Put plainly: SEC.

“PtmA2 (as used for analytical size-exclusion chromatography) (enzyme)”: the stoichiometry N amounted to 2.
